Reference: the supplement of paper PMC10567573

B1: KCNAB2 (parent)
chain: YVDVVFANRPDPNTPMEETVRAMT
B2: PKD2L1 (parent)
chain: TLARCAKDILGFAVMFFIVFFAYA

Variants of: B1
Experiment: protein stability index of a GFP-peptide fusion (GPS, HEK-293T) (PSI 1-6); higher = more stable
Settings: c terminus: a fixed tail appended
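Note: lentivirally expressed fusions sorted by FACS into six bins by GFP to DsRed ratio, PSI derived from sequencing read proportions per bin multiplied by bin number.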

Protein stability index, by site and new letter:
E17: G 2.72; H 2.85; I 1.58; K 2.62; L 1.64; M 2.65; N 2.76; P 2.17; Q 2.14; R 2.29; S 1.2; T 2.84; V 2.06; W 3.15; Y 2.5
E18: A 2.67; C 2.02; D 2.04; F 2.1; G 1.75; H 2.97; I 2.98; K 2.75; L 2.56; M 3.06; N 1.83; P 2.27; Q 2.09; R 2.1; S 1.99; T 1.64; V 2.43; W 1.85; Y 2.64
T19: A 1.86; C 1.46; D 2.07; E 1.71; F 1.66; G 1.9; H 2.1; I 1.85; K 2.41; L 1.89; M 1.79; N 2; P 1.61; Q 1.9; R 1.66; S 1.93; V 2.01; W 1.85; Y 1.62
V20: A 1.82; C 1.99; D 1.76; E 1.76; F 1.64; G 2.07; H 1.81; I 1.87; K 1.59; L 2.58; M 1.71; N 1.92; P 1.86; Q 1.82; R 1.82; S 2.06; T 1.81; W 2.74; Y 1.8
R21: A 1.84; C 1.5; D 1.56; E 2.27; F 2.78; G 2.37; H 2.22; I 2.15; K 2.35; L 2.64; M 1.56; N 2.33; P 2.1; Q 2.18; S 1.77; T 1.96; V 1.58; W 2.27; Y 1.87
A22: C 2.26; D 2.67; E 1.6; F 2.28; G 1.74; H 2.27; I 1.72; K 2.08; L 1.98; M 2.32; N 2.13; P 1.69; Q 1.85; R 1.89; S 1.76; T 1.33; V 2.29; W 2.49; Y 1.73
M23: A 2.16; C 2.04; D 1.61; E 1.86; F 2.03; G 1.56; H 1.66; I 1.82; K 1.82; L 2.57; N 1.8; P 2.14; Q 1.41; R 2.81; S 1.58; V 1.78; W 2.06; Y 2.13
T24: C 1.98; D 1.46; E 1.86; F 3.03; G 1.35; H 1.74; I 1.78; K 1.82; L 1.8; M 2.18; N 1.5; P 2.24; Q 2.09; R 1.78; S 1.88; V 1.47; W 2.72; Y 2.46

Variants of: B2
Experiment: as above
Settings: c terminus: a fixed tail appended

Protein stability index, by site and new letter:
T1: A 2.36; C 2.98; D 2.96; F 3.18; H 2.29; I 2; K 3.97; L 2; M 4.2; N 2.67; P 2.03; R 1.72; S 2.19; V 2.81; W 1.62
L2: A 3.81; C 3.44; D 3.71; E 2.8; G 3.03; H 2.35
